Results reported in patent publication US20260184814A1, “BROADLY NE[…] INFLUENZA NEURAMINIDASE” (priority 2022, published 2026).

Assays:
[1] = target: N2 A/Tanzania/205/2010 (82-469) S245N S247T (Influenza A virus); test: SPR (Biacore), NA on anti-Avi chip, 1:1 model; NA code NA-19 (+glyc245)
[2] = target: N2 A/South_Australia/34/2019 (82-469) N245S (Influenza A virus); test: SPR (Biacore), NA on anti-Avi chip, 1:1 model; NA code NA-24 (-glyc245)
[3] = target: N2 A/Tanzania/205/2010 (82-469) S245N S247T (Influenza A virus); test: SPR; NA-19; parameters: unit not given beside the values
[4] = target: N2 A/South_Australia/34/2019 (82-469) N245S (Influenza A virus); test: SPR; NA-24; parameters: unit not given beside the values
[5] = target: N2 A/Hong_Kong/2671/2019 (82-469) N245S (Influenza A virus); test: SPR; NA-25; parameters: unit not given beside the values
[6] = target: N2 A/Tanzania/205/2010 (82-469) S245N S247T (Influenza A virus); test: SPR, 1:1 binding; NA-19 "+glyc245"
[7] = target: N2 A/South_Australia/34/2019 (82-469) N245S (Influenza A virus); test: SPR, 1:1 binding; NA-24 "-glyc245"
[8] = target: N2 A/Hong_Kong/2671/2019 (82-469) N245S (Influenza A virus); test: SPR, 1:1 binding; NA-25 "-glyc245"

Row | Binder | fold-change in affinity compared to FNI9-v1.1 [1] | fold-change in affinity compared to FNI9-v1.1 [2] | KD compared to v1.1 [3] | KD compared to v1.1 [4] | KD compared to v1.1 [5] | Kd [6] | Kd [7] | Kd [8]
1 | FNI9-v4.1 (antibody, V domains shown) VH: QVHLVQSGAEVKEPGSSVTVSCKASGGSFSNQAISWVRQAPGQGLEWMGGIFPISGTPTSAQRFQGRVTFTADESTTTVYMDLSSLRSDDTAVYYCARAGSDYFNRDLGWENYYFASWGQGTLVTVSS VL: EIVMTQSPATLSLSSGERATLSCRASRSVSSNLAWYQQKPGQAPRLLIYDASTRATGFSARFAGSGSGTEFTLTISSLQSEDSAIYYCQQYNNWPPWTFGQGTKVEIK | 2.47 | 1.53 |  |  |  |  |  | 
2 | Fab FNI9-v8.1 (Fab, V domains shown) VH: QVHLVQSGAEVKEPGSSVTVSCKASGGTFNNQAISWVRQAPGQGLEWMGGIFPISGTPTSAQRFQGRVTFTADESTTTVYMDLSSLRSDDTAVYYCARAGSDYFNRDLGWENYYFASWGQGTLVTVSS VL: EIVMTQSPATLSLSSGERATLSCRASRSVSSNLAWYQQKPGQAPRLLIYDASTRATGFSARFAGSGSGTEFTLTISSLQSEDSAIYYCQQYNNWPPWTFGQGTKVEIK |  |  | 0.57 | 0.82 | 0.7 | 3.83 nM | 11.2 nM | 0.49 nM
3 | FNI9-v8.1 (antibody, V domains shown) VH: QVHLVQSGAEVKEPGSSVTVSCKASGGTFNNQAISWVRQAPGQGLEWMGGIFPISGTPTSAQRFQGRVTFTADESTTTVYMDLSSLRSDDTAVYYCARAGSDYFNRDLGWENYYFASWGQGTLVTVSS VL: EIVMTQSPATLSLSSGERATLSCRASRSVSSNLAWYQQKPGQAPRLLIYDASTRATGFSARFAGSGSGTEFTLTISSLQSEDSAIYYCQQYNNWPPWTFGQGTKVEIK | 1.12 | 0.42 |  |  |  |  |  | 
4 | FNI9-v9.1 (antibody, V domains shown) VH: QVHLVQSGAEVKEPGSSVTVSCKASGGSFNNQAISWVRQAPGQGLEWMGGIFPISGTATSAQRFQGRVTITADESTTTVYMDLSSLRSDDTAVYYCARAGSDYFNRDLGWENYYFASWGQGTLVTVSS VL: EIVMTQSPATLSLSSGERATLSCRASRSVSSNLAWYQQKPGQAPRLLIYDASTRATGFSARFAGSGSGTEFTLTISSLQSEDSAIYYCQQYNNWPPWTFGQGTKVEIK | 4.59 | 0.99 |  |  |  |  |  | 
5 | Fab FNI9-v4.1 (Fab, V domains shown) VH: QVHLVQSGAEVKEPGSSVTVSCKASGGSFSNQAISWVRQAPGQGLEWMGGIFPISGTPTSAQRFQGRVTFTADESTTTVYMDLSSLRSDDTAVYYCARAGSDYFNRDLGWENYYFASWGQGTLVTVSS VL: EIVMTQSPATLSLSSGERATLSCRASRSVSSNLAWYQQKPGQAPRLLIYDASTRATGFSARFAGSGSGTEFTLTISSLQSEDSAIYYCQQYNNWPPWTFGQGTKVEIK |  |  | 1.23 | 1.66 | 1.53 | 8.31 nM | 22.8 nM | 1.07 nM
